{"source": "paper PMC7862291", "about": "“Full-length in meso structure and mechanism of rat kynurenine 3-monooxygenase inhibition” (Communications Biology, 2021)", "proteins": {"B1": {"name": "full-length Rattus norvegicus kynurenine 3-monooxygenase (Rat-KMO), crystallisation construct (enzyme, Rattus norvegicus (rat), UniProt O88867 1-478, looked up)", "chain": "MASSDTEGKRVVVIGGGLVGALNACFLAKRNFQVDVYEAREDIRVANFMRGRSINLALSYRGRQALKAVGLEDQIVSKGVPMKARMIHSLSGKKSAIPYGNKSQYILSISREKLNKDLLTAVESYPNAKVHFGHKLSKCCPEEGILTMLGPNKVPRDITCDLIVGCDGAYSTVRAHLMKKPRFDYSQQYIPHGYMELTIPPKNGEYAMEPNCLHIWPRNAFMMIALPNMDKSFTCTLFMSFEEFEKLPTHSDVLDFFQKNFPDAIPLMGEQALMRDFFLLPAQPMISVKCSPFHLKSRCVLMGDAAHAIVPFFGQGMNAGFEDCLVFDELMDKFNNDLSVCLPEFSRFRIPDDHAISDLSMYNYIEMRAHVNSRWFLFQRLLDKFLHALMPSTFIPLYTMVAFTRIRYHEAVLRWHWQKKVINRGLFVLGSLVAIGSAYILVHHLSPRPLELLRSAWTGTSGHWNRSADISPRVPWSH", "notes": "thrombin site between GST and the N-terminus, TEV site before the C-terminal FLAG tag; C-terminus disordered from H443 in the structure; crystallised in meso with compound 3 or compound 4; No TEV cleavage is described; Treated with N-Glycosidase F; also called full-length KMO (1-478); not shown: GST, N-terminal, cleaved"}}, "target": "the molecule itself", "assay": "crystal structure; in meso (lipidic cubic phase, 9:1 monoolein:cholesterol); Rat-KMO with compound 3 (and NADPH) or compound 4; 3.0 Å"}
{"protein": "B1", "values": [{"measurement": "stoichiometry N", "result": 2}]}
